Data published in patent EP2748199B1 (Board of Regents, The University of Texas System, dated 2019).

Target: T1, human OX40 (human, UniProt P43489 29-277)
T1 construct: whole, on cells; The construct used for transfection is not described; also called hOX40; OX40 receptor
T1 sequence (looked up): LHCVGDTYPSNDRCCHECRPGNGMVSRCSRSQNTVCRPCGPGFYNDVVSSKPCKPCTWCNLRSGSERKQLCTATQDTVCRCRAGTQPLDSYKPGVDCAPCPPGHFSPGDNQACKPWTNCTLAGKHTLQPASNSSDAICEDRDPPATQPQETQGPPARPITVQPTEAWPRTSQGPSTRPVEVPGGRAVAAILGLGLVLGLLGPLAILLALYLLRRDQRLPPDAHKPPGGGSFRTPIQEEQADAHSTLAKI
Experiment: flow cytometry on L/OX40 cells, FITC goat anti-human IgG

EC50: 0.96 µg/mL
B1: chimeric 119-43-1 IgG1/κ antibody (antibody, V domains shown)
VH: EVKLEESGGGLVQPGGSMKLSCAASGFTFSDAWMDWVRQSPEKGLEWVAEIRSKANNHATYYAESVNGRFTISRDDSKSSVYLQMNSLRAEDTGIYYCTWGEVFYFDYWGQGTTLTVSS
VL: DIQMTQSPSSLSASLGGKVTITCKSSQDINKYIAWYQHKPGKGPRLLIHYTSTLQPGIPSRFSGSGSGRDYSFSISNLEPEDIATYYCLQYDNLLTFGAGTKLELKR
notes: also called Ch119-43-1
